Binding result and Kd data for 4 molecules are collected here from patent US20230012273A1 (Boehringer Ingelheim, published 2023).

Test [1] deals with T1, full-length human SIRPβL (NP_001129316.1) on cells (human, UniProt Q5TFQ8 30-398).
T1 construct: on U937 SIRPα KO cells and Expi-CHO cells; also called βL WT; SIRPβ1v3
The experiment in a line: flow cytometry, U937 SIRPα KO cells. As for the experimental part:
Antibody binding to cells expressing full-length human SIRPβ1 (NP_006056.2) and SIRPβL (NP_001129316.1) is evaluated by flow cytometry. SIRPβ1- or SIRPβL-expressing U937^{SIRPα KO} cells are blocked with donkey IgG and incubated on ice with increasing concentrations of antibodies for 60 minutes, washed and stained with AF647-conjugated donkey F(ab′)₂ anti-human IgG secondary reagent. Cells are washed, fixed, and analyzed by flow cytometry. Median fluorescent intensity is determined and used as a measure of antibody binding.
Background: In flow cytometry, cells or beads pass a laser one at a time.

Test [2] addresses T2, full-length human SIRPγ (NP_061026.2) on cells (human, UniProt Q9P1W8 29-387).
T2 construct: on CHO and Expi-CHO cells; endogenous on primary human CD3+ T cells; also called γ WT
Nature of the test: flow cytometry, primary human CD3+ T cells. The method, then: Antibody binding to primary human T cells expressing endogenous SIRPγ is evaluated by flow cytometry. Human peripheral blood mononuclear cells (PBMCs) are blocked with donkey IgG and incubated on ice with increasing concentrations of antibody for 60 minutes, washed and stained with AF647-conjugated donkey F(ab′)₂ anti-human IgG secondary reagent. […] Cells are washed, fixed, and analyzed by flow cytometry. Median fluorescent intensity of CD3+ gated population is determined and used as a measure of antibody binding.

Test [3] has as its target full-length human SIRPβ1 D→H on Expi-CHO cells (human, UniProt O00241 30-398). The experiment in a line: flow cytometry, Expi-CHO cells. The method, then:
These cells are blocked with donkey IgG and incubated on ice with increasing concentrations of antibodies for 60 minutes, washed and stained with AF647-conjugated donkey F(ab′)₂ anti-human IgG antibodies. Stained cells are washed, fixed, and analyzed by flow cytometry. Median fluorescent intensity is determined and used as a measure of antibody binding.

For test [4], the target named is T3, human SIRPβL/SIRPβ1v3 extracellular domain + His-tag (NP_001129316.1) (human, UniProt Q5TFQ8 30-371).
T3 construct: also called hSIRPβ1v3; HuSIRPβ1v3
T3 sequence (Q5TFQ8 other isoform, or with tags, fused parts or gaps): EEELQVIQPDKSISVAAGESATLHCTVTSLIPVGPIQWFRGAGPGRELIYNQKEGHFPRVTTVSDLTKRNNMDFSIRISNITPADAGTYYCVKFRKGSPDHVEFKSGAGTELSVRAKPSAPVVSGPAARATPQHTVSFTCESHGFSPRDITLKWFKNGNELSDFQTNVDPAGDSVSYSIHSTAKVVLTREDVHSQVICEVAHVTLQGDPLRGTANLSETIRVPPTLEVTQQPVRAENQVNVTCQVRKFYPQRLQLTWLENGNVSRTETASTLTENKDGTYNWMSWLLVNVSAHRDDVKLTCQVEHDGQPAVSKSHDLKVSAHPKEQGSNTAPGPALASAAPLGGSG
Nature of the test: SPR, Ab captured, ECD-His analyte. As for the experimental part:
(§1) The binding affinity of anti-SIRPα antibodies to the various SIRPα analytes is determined by surface plasmon resonance (SPR) using a ProteOn XPR36 (Bio-Rad). The running buffer for this experiment and all dilutions (except where stated) are done in 1×HBS-EP+. […] The sensorchip is deactivated with 1M ethanolamine HCl for 420 sec at a flowrate of 10 μl/min.
(§2) The analyte is injected over the captured antibody for 300 sec at a flowrate of 30 μl/min. The dissociation is done for 600 sec. Two-fold serial dilutions of each SIRP protein (Extracellular Domain+His-Tag) are injected as analyte with the highest concentrations indicated in table 36 below.
A general note: In SPR one partner is held on a chip, and binding of the other changes the refractive index at the surface.

Test [5] has as its target T4, human SIRPγ extracellular domain + His-tag (NP_061026.2) (human, UniProt Q9P1W8 29-360).
T4 construct: also called hSIRPγ; HuSIRPγ
The experiment in a line: SPR, Ab captured, ECD-His analyte. The method, then: as §1, §2

Test [6] concerns the target T5, human SIRPβ1 extracellular domain + His-tag (NP_006056.2) (human, UniProt O00241 30-371).
T5 construct: also called hSIRPβ1; HuSIRPβ1
Nature of the test: SPR, Ab captured, ECD-His analyte. As for the experimental part: as §1, §2

The target in test [7] is T6, cynomolgus SIRPβ1v3 extracellular domain + His-tag (XP_005568593) (cynomolgus monkey).
T6 construct: also called Cyno SIRPβ1v3; cynoSIRPβ1v3
T6 chain: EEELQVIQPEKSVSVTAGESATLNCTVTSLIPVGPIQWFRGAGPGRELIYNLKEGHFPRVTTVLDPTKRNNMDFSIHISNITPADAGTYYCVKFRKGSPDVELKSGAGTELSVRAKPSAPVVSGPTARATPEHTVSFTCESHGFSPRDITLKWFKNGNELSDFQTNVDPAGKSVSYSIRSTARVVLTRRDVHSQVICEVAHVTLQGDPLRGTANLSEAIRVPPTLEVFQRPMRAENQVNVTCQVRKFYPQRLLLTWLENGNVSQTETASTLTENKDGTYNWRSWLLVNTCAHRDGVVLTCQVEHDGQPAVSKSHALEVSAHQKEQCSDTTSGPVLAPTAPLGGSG
The experiment in a line: SPR, Ab captured, ECD-His analyte. As for the experimental part: as §1, §2

Test [8] deals with T7, cynomolgus SIRPα extracellular domain + His-tag (EGM_02252) (cynomolgus monkey).
T7 construct: also called CySIRPα EGM_02252; cynoSIRPα
T7 chain: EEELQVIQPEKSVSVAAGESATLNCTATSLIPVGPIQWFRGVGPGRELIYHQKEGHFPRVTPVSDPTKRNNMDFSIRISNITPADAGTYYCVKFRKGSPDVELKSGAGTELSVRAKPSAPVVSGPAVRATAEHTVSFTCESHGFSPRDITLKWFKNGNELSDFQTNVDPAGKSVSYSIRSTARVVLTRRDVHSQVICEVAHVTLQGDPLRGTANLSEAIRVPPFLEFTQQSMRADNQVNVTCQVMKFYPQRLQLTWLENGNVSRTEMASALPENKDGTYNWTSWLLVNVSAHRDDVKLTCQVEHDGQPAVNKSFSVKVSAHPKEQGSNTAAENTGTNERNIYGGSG
Nature of the test: SPR, Ab captured, ECD-His analyte. The method, then: as §1, §2

The target in test [9] is T8, cynomolgus SIRPα extracellular domain + His-tag (XP_015313155) (cynomolgus monkey).
T8 construct: also called CySIRPα XP_015313155; cynoSIRPα
T8 chain: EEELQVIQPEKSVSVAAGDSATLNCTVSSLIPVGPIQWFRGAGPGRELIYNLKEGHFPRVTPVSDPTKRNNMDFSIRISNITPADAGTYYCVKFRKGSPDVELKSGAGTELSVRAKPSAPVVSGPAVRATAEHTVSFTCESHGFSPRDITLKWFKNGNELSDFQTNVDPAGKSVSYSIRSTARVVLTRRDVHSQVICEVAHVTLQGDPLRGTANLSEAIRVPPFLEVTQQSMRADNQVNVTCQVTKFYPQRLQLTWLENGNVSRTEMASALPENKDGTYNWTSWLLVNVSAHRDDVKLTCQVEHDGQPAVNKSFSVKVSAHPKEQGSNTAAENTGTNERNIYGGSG
Nature of the test: SPR, Ab captured, ECD-His analyte. The method, then: as §1, §2

For test [10], the target named is T9, cynomolgus SIRPγ extracellular domain + His-tag (XP_005568591) (cynomolgus monkey, UniProt Q9P1W8 29-359 (human entry)).
T9 construct: also called Cyno SIRPγ; cynoSIRPγ
T9 chain: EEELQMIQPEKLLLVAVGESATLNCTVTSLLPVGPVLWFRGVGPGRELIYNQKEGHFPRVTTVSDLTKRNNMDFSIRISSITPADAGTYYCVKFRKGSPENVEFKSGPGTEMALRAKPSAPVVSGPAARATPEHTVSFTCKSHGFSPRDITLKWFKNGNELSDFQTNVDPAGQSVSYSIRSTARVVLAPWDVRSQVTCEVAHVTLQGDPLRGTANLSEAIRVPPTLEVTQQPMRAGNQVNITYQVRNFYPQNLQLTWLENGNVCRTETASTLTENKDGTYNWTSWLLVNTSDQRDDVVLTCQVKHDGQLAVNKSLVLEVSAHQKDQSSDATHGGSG
Nature of the test: SPR, Ab captured, ECD-His analyte. The method, then: as §1, §2

For test [11], the target named is T10, mouse SIRPα extracellular domain + His-tag (NP_031573) (mouse, UniProt P97797 32-373).
T10 chain: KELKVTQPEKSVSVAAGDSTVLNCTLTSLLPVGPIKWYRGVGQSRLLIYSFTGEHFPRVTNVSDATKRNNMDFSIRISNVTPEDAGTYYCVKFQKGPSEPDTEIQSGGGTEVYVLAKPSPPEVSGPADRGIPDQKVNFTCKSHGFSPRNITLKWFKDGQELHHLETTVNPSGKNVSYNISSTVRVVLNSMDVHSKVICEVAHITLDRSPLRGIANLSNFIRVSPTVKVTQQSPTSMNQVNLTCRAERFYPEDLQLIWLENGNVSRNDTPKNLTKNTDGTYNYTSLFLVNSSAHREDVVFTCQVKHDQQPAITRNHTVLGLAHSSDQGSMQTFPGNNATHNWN
The experiment in a line: SPR, Ab captured, ECD-His analyte. The method, then:
as §1, §2

In test [12] the target is T11, cynomolgus SIRPα extracellular domain + His-tag (NP_001271679) (cynomolgus monkey).
T11 construct: also called CySIRPα NP_001271679; cynoSIRPα
T11 chain: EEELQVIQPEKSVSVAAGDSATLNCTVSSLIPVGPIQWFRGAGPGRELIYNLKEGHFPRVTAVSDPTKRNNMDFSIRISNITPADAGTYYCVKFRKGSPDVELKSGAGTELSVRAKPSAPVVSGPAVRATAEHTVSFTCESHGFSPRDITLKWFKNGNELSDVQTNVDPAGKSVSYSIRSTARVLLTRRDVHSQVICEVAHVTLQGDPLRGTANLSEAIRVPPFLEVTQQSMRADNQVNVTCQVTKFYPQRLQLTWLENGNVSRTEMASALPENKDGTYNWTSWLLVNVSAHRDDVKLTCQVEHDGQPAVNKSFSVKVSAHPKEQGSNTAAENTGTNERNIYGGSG
Nature of the test: SPR, Ab captured, ECD-His analyte. As for the experimental part: as §1, §2

The target in test [13] is T12, human SIRPαV1 extracellular domain + His-tag (NP_542970.1) (human, UniProt P78324 31-373).
T12 construct: also called hSIRPαV1; HuSIRPαV1
T12 sequence (P78324 other isoform, or with tags, fused parts or gaps): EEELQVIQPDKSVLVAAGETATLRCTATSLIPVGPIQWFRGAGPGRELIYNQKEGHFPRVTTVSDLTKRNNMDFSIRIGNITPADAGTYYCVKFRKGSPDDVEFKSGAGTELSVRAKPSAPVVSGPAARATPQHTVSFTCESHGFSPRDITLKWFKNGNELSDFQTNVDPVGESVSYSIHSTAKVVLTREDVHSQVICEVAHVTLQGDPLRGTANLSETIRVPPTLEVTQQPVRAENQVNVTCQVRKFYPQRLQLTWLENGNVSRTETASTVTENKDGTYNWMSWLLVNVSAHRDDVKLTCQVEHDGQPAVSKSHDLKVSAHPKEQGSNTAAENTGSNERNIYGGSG
The experiment in a line: SPR, Ab captured, ECD-His analyte. As for the experimental part: as §1, §2

Test [14] concerns the target T13, human SIRPαV2 extracellular domain + His-tag (CAA71403.1) (human, UniProt P78324 31-373).
T13 construct: also called hSIRPαV2; HuSIRPαV2
Nature of the test: SPR, Ab captured, ECD-His analyte. The method, then:
as §1, §2

The target of test [15] is T5, human SIRPβ1 extracellular domain + …. The experiment in a line: SPR, Ab captured, ECD-His analyte. As for the experimental part:
as §1, §2
The source holds these as a separate data set.

Read-outs that look alike come from different tables or passages of the source.

T5 sequence (O00241 other isoform, or with tags, fused parts or gaps): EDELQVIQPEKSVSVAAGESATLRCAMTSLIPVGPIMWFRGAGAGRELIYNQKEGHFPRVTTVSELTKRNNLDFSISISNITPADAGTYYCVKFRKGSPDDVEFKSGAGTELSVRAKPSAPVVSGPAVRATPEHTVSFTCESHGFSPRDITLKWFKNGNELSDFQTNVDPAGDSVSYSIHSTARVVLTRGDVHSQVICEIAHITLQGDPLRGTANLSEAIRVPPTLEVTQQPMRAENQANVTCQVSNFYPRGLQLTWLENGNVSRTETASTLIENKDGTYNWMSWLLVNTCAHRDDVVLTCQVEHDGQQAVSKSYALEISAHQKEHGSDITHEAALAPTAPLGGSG
Chain of full-length human SIRPβ1 D→H on Expi-CHO cells (O00241 30-398 D130H): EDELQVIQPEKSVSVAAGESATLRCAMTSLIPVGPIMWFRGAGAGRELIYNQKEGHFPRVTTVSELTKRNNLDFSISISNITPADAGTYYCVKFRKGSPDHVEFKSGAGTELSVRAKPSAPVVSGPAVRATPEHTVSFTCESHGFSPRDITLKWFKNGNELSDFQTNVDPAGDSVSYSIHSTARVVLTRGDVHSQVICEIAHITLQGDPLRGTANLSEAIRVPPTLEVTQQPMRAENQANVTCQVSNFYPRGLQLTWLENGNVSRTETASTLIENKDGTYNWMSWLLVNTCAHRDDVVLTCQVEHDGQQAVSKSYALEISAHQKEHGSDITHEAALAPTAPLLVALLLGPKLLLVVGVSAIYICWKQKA
T1 sequence (Q5TFQ8 30-398): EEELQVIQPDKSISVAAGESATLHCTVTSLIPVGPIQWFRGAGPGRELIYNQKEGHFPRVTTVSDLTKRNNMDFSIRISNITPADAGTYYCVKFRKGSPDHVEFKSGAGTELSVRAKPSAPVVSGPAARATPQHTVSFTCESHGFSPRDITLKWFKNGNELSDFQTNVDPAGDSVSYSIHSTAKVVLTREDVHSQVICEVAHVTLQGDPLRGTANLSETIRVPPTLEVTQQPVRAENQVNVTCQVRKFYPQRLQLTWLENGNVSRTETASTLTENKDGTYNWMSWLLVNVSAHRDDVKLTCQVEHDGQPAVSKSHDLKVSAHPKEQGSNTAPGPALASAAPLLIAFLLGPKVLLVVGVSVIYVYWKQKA
T2 sequence (Q9P1W8 29-387): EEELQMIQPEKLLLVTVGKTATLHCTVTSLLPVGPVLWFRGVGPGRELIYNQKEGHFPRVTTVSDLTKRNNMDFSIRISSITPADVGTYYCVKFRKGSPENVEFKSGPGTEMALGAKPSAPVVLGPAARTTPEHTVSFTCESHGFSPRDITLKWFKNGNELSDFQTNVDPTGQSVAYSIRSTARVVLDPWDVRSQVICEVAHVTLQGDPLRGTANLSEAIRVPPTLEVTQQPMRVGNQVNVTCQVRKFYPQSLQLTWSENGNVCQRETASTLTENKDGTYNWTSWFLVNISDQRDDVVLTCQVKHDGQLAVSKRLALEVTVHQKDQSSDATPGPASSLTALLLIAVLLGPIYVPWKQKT
T13 sequence (P78324 other isoform, or with tags, fused parts or gaps): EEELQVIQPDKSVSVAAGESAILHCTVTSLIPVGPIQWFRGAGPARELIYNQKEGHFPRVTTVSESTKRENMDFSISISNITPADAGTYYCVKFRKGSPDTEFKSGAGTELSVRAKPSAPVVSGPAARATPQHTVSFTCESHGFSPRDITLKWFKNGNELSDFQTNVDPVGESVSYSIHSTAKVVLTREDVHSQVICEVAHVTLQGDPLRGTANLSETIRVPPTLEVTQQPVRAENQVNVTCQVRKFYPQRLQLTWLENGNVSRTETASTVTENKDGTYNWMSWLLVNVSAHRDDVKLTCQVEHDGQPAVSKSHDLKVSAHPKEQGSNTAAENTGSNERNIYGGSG
T4 sequence (Q9P1W8 29-360): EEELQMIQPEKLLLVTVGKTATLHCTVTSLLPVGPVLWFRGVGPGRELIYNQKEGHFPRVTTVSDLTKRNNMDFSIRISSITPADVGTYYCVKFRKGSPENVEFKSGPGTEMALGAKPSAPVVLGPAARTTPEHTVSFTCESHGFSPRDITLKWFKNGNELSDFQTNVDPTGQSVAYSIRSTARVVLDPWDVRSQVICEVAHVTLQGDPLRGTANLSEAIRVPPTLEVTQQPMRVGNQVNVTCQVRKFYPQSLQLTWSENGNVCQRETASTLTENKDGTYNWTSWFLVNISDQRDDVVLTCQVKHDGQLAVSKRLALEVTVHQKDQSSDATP

B1: Antibody A11 (antibody, human IgG4 S228P, kappa)
heavy: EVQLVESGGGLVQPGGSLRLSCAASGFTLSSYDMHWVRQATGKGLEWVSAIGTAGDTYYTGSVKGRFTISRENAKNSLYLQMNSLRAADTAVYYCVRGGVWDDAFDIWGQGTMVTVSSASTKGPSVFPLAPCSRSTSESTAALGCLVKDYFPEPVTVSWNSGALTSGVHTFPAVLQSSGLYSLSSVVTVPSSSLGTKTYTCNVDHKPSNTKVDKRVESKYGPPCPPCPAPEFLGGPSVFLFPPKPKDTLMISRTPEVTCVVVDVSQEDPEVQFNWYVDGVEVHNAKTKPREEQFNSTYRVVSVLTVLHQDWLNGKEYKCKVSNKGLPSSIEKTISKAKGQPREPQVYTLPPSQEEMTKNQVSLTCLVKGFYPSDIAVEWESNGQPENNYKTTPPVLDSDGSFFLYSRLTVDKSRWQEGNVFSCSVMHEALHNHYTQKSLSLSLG
light: DIQMTQSPSSLSASVGDRVTITCRASQDINNYLAWFQQKPGKAPKSLIYTASSLHSGVPSKFSGSGSGTDFTLTISSLQPEDFATYYCQQYVSYPYTFGQGTKLEIKRTVAAPSVFIFPPSDEQLKSGTASVVCLLNNFYPREAKVQWKVDNALQSGNSQESVTEQDSKDSTYSLSSTLTLSKADYEKHKVYACEVTHQGLSSPVTKSFNRGEC
As to B1, the binding result in test [1] and in test [2] was “no binding” in each case.

B2: Antibody A4 (antibody, human IgG1, kappa, L234A L235A, V domains shown)
VH: EVQLVESGGGLVQPGGSLRLSCAASGFTLSSYDMHWVRQAPGKGLEWVSAIGTAGDTYYTGSVKGRFTISRENAKNSLYLQMNSLRAADTAVYYCVRGGVWDDAFDIWGQGTMVTVSS
VL: DIQMTQSPSSLSASVGDRVTITCRASQGINNYAAWFQQKPGKAPKSLIYTASSLHSGVPSKFSGSGSGTDFTLTISSLQPEDFATYYCQQYVSYPYTFGQGTKLEIKR
As a reminder, the Kd is the free concentration of one partner at which half of the binding sites on the other are occupied at equilibrium, for simple one-to-one binding. With B2, the binding result in test [1] is listed as “no binding”; in test [3], “no binding”; in [2], “no binding”; in test [4], “no binding (tested: 100 nM)”; in test [5], “no binding (tested: 1000 nM)”; in test [10], “no binding (tested: 1000 nM)”. Further, the Kd was found to be 67.2 nM in [6], 460 nM in test [7], 508 nM in test [8] and 374 nM in [9].

B3: Antibody D (antibody, human IgG1, kappa, L234A L235A, V domains shown)
VH: EVQLVESGGGLVQPGGSLRLSCAASGFTFSSFDMHWVRQPTGKGLEWVSTIGIAGDTYFPGSVKGRFTISRENAKNSLYLQMNSLRAGDTAVYYCARGGNWDDALDIWGQGTMVTVSS
VL: DIQMTQSPSSLSASVGDRVTITCRASQDINNYLAWFQQKPGKAPKSLIYTASSLQSGVPSKFSGSGSGTDFTLTISSLQPEDFATYYCQQYNTYPYTFGQGTKLEIKR
With B3, the binding result in test [11] is recorded as “no binding”; in [12] it was “no binding (tested: 1000 nM)”; in test [3], “no binding”. Moreover, the results for the Kd in [13], in [14] and in test [15] were 4.04 nM, 4.05 nM and 16.5 nM, respectively.

B4: Antibody C (antibody, human IgG1, kappa, L234A L235A, V domains shown)
VH: EVQLVESGGGLVQPGGSLRLSCAASGFTFSSYDMHWVRQATGKGLEWVSVIGIAGDTYYPGSVKGRFTISRENAKNSLYLQMNSLRVGDTAVYYCARGGSWDDAFDIWGQGTMVTVSS
VL: DIQMTQSPSSLSASIGDKVTITCRASQDINNYLAWFQQKPGKAPKSLIYTASSLQSGVPSKFSGSGSGTDFTLTISSLQPEDFATYYCQQYVSYPYTFGQGTKLEIKR
On to B4, for which the binding result in [11] and in test [3] was “no binding” in each case. For the same molecule, the Kd is 14.3 nM in test [12], 0.627 nM in test [13], 0.0969 nM in test [14] and 2.14 nM in test [15].
